Measurements taken from patent publication US20250339531A1, “DUX4 POLYPEPTIDES AND NUCLEIC ACIDS FOR TREATING INFLAMMATORY AND AUTOIMMUNE CONDITIONS” (Fred Hutchinson Cancer Center, priority 2021, published 2025).

Tested on: proteins that co-immunoprecipitated with DUX4-CTD constructs expressed in MB135 myoblasts
Test: LC-MS of proteins co-immunoprecipitated with DUX4-CTD (Table 1) and western validation
Type: binding, human
Parameters: key to 4. mL1dL2 + Dox + IFNG / 4. + IFNG mix / 4. longCTD + Dox + IFNG / 3. + IFNg + Dox longCTD / 3. + Dox longCTD / 3. + IFNG longCTD: peptide-spectrum matches (PSMs) per protein
Conditions: kind of count not given; for 4. + IFNG mix: LC-MS value per protein co-immunoprecipitated from MB135 myoblasts, + IFNG mix sample (no Dox); for 4. mL1dL2 + Dox + IFNG: LC-MS value per protein co-immunoprecipitated with DUX4-CTD construct mL1dL2 in MB135 myoblasts
Outline: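 FLAG-tagged DUX4-CTD expressed in doxycycline-induced MB135 myoblasts, some also IFNG-treated; nuclear lysates in pH 7.4 NP-40 IP buffer were pre-cleared, then anti-FLAG immunoprecipitated 3 h at 4 °C. For LC-MS, FLAG-peptide elution, in-gel trypsin digest, Orbitrap analysis; proteins with ≥2 PSMs in both experiments categorised and ranked by total PSMs.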

B1: RRBP1 (protein)
chain: MDIYDTQTLGVVVFGGFMVVSAIGIFLVSTFSMKETSYEEALANQRKEMAKTHHQKVEKKKKEKTVEKKGKTKKKEEKPNGKIPDHDPAPNVTVLLREPVRAPAVAVAPTPVQPPIIVAPVATVPAMPQEKLASSPKDKKKKEKKVAKVEPAVSSVVNSIQVLTSKAAILETAPKEVPMVVVPPVGAKGNTPATGTTQGKKAEGTQNQSKKAEGAPNQGRKAEGTPNQGKKTEGTPNQGKKAEGTPNQGKKAEGTPNQGKKAEGAQNQGKKVDTTPNQGKKVEGAPTQGRKAEGAQNQAKKVEGAQNQGKKAEGAQNQGKKGEGAQNQGKKAEGAQNQGKKAEGAQNQGKKAEGAQNQGKKAEGAQNQGKKAEGAQNQGKKAEGAQNQGKKVEGAQNQGKKAEGAQNQGKKAEGAQNQGKKAEGAQNQGKKAEGAQNQGKKAEGAQNQGKKAEGAQNQGKKAEGAQNQGKKVEGAQNQGKKAEGAQNQGKKAEGAQNQGKKAEGAQNQGQKGEGAQNQGKKTEGAQGKKAERSPNQGKKGEGAPIQGKKADSVANQGTKVEGITNQGKKAEGSPSEGKKAEGSPNQGKKADAAANQGKKTESASVQGRNTDVAQSPEAPKQEAPAKKKSGSKKKGEPGPPDADGPLYLPYKTLVSTVGSMVFNEGEAQRLIEILSEKAGIIQDTWHKATQKGDPVAILKRQLEEKEKLLATEQEDAAVAKSKLRELNKEMAAEKAKAAAGEAKVKKQLVAREQEITAVQARMQASYREHVKEVQQLQGKIRTLQEQLENGPNTQLARLQQENSILRDALNQATSQVESKQNAELAKLRQELSKVSKELVEKSEAVRQDEQQRKALEAKAAAFEKQVLQLQASHRESEEALQKRLDEVSRELCHTQSSHASLRADAEKAQEQQQQMAELHSKLQSSEAEVRSKCEELSGLHGQLQEARAENSQLTERIRSIEALLEAGQARDAQDVQASQAEADQQQTRLKELESQVSGLEKEAIELREAVEQQKVKNNDLREKNWKAMEALATAEQACKEKLLSLTQAKEESEKQLCLIEAQTMEALLALLPELSVLAQQNYTEWLQDLKEKGPTLLKHPPAPAEPSSDLASKLREAEETQSTLQAECDQYRSILAETEGMLRDLQKSVEEEEQVWRAKVGAAEEELQKSRVTVKHLEEIVEKLKGELESSDQVREHTSHLEAELEKHMAAASAECQNYAKEVAGLRQLLLESQSQLDAAKSEAQKQSDELALVRQQLSEMKSHVEDGDIAGAPASSPEAPPAEQDPVQLKTQLEWTEAILEDEQTQRQKLTAEFEEAQTSACRLQEELEKLRTAGPLESSETEEASQLKERLEKEKKLTSDLGRAATRLQELLKTTQEQLAREKDTVKKLQEQLEKAEDGSSSKEGTSV
  4. + IFNG mix: 12
  4. mL1dL2 + Dox + IFNG: 4

B2: EEF1A1 (protein)
chain: GKEKTHINIVVIGHVDSGKSTTTGHLIYKCGGIDKRTIEKFEKEAAEMGKGSFKYAWVLDKLKAERERGITIDISLWKFETSKYYVTIIDAPGHRDFIKNMITGTSQADCAVLIVAAGVGEFEAGISKNGQTREHALLAYTLGVKQLIVGVNKMDSTEPPYSQKRYEEIVKEVSTYIKKIGYNPDTVAFVPISGWNGDNMLEPSANMPWFKGWKVTRKDGNASGTTLLEALDCILPPTRPTDKPLRLPLQDVYKIGGIGTVPVGRVETGVLKPGMVVTFAPVNVTTEVKSVEMHHEALSEALPGDNVGFNVKNVSVKDVRRGNVAGDSKNDPPMEAAGFTAQVIILNHPGQISAGYAPVLDCHTAHIACKFAELKEKIDRRSGKKLEDGPKFLKSGDAAIVDMVPGKPMCVESFSDYPPLGRFAVRDMRQTVAVGVIKAVDKKAAGAGKVTKSAQKAQKAK
  4. + IFNG mix: 4
  4. mL1dL2 + Dox + IFNG: 3

B3: HNRNPM (protein)
chain: AAGVEAAAEVAATEIKMEEESGAPGVPSGNGAPGPKGEGERPAQNEKRKEKNIKRGGNRFEPYANPTKRYRAFITNIPFDVKWQSLKDLVKEKVGEVTYVELLMDAEGKSRGCAVVEFKMEESMKKAAEVLNKHSLSGRPLKVKEDPDGEHARRAMQKVMATTGGMGMGPGGPGMITIPPSILNNPNIPNEIIHALQAGRLGSTVFVANLDYKVGWKKLKEVFSMAGVVVRADILEDKDGKSRGIGTVTFEQSIEAVQAISMFNGQLLFDRPMHVKMDERALPKGDFFPPERPQQLPHGLGGIGMGLGPGGQPIDANHLNKGIGMGNIGPAGMGMEGIGFGINKMGGMEGPFGGGMENMGRFGSGMNMGRINEILSNALKRGEIIAKQGGGGGGGSVPGIERMGPGIDRLGGAGMERMGAGLGHGMDRVGSEIERMGLVMDRMGSVERMGSGIERMGPLGLDHMASSIERMGQTMERIGSGVERMGAGMGFGLERMAAPIDRVGQTIERMGSGVERMGPAIERMGLSMERMVPAGMGAGLERMGPVMDRMATGLERMGANNLERMGLERMGANSLERMGLERMGANSLERMGPAMGPALGAGIERMGLAMGGGGGASFDRAIEMERGNFGGSFAGSFGGAGGHAPGVARKACQIFVRNLPFDFTWKMLKDKFNECGHVLYADIKMENGKSKGCGVVKFESPEVAERACRMMNGMKLSGREIDVRIDRNA
  4. mL1dL2 + Dox + IFNG: 3

B4: EEF1D (protein)
chain: MEAPLGSILSPCPGRAATGRAGTGRVGTGLRPPAVLQLCPLLAFYRCVRKMRSGKASCTLETVWEDKHKYEEAERRFYEHEATQAAASAQQLPAEGPAMNGPGQDDPEDADEAEAPDGGSRRDPRKSQDSRKPLQKKRKRSPKSGLGPADLALLGLSAERVWLDKSLFDQAESSYRQKLADVAAQAAWPPALAPWGLCTHGNQVACHHVTWGIWVNKSSFDQAERAFVEWSQALLLAPDGSRRQGTPNTGQQVAVPDLAHQPSPPVNGQPPLGSLQALVREVWLEKPRYDAAERGFYEALFDGHPPGKVRLQERAGLAEGARRGRRDRRGRNILGNKRAGLRRADGEAPSALPYCYFLQKDAEAPWLSKPAYDSAECRHHAAEALRVAWCLEAASLSHRPGPRSGLSVSSLRPNRKMATNFLAHEKIWFDKFKYDDAERRFYEQMNGPVAGASRQENGASVILRDIARARENIQKSLAGSSGPGASSGTSGDHGELVVRIASLEVENQSLRGVVQELQQAISKLEARLNVLEKSSPGHRATAPQTQHVSPMRQVEPPAKKPATPAEDDEDDDIDLFGSDNEEEDKEAAQLREERLRQYAEKKAKKPALVAKSSILLDVKPWDDETDMAQLEACVRSIQLDGLVWGASKLVPVGYGIRKLQIQCVVEDDKVGTDLLEEEITKFEEHVQSVDIAAFNKI
  4. mL1dL2 + Dox + IFNG: 7

B5: ATP2B1 (protein)
chain: GDMANNSVAYSGVKNSLKEANHDGDFGITLAELRALMELRSTDALRKIQESYGDVYGICTKLKTSPNEGLSGNPADLERREAVFGKNFIPPKKPKTFLQLVWEALQDVTLIILEIAAIVSLGLSFYQPPEGDNALCGEVSVGEEEGEGETGWIEGAAILLSVVCVVLVTAFNDWSKEKQFRGLQSRIEQEQKFTVIRGGQVIQIPVADITVGDIAQVKYGDLLPADGILIQGNDLKIDESSLTGESDHVKKSLDKDPLLLSGTHVMEGSGRMVVTAVGVNSQTGIIFTLLGAGGEEEEKKDEKKKEKKNKKQDGAIENRNKAKAQDGAAMEMQPLKSEEGGDGDEKDKKKANLPKKEKSVLQGKLTKLAVQIGKAGLLMSAITVIILVLYFVIDTFWVQKRPWLAECTPIYIQYFVKFFIIGVTVLVVAVPEGLPLAVTISLAYSVKKMMKDNNLVRHLDACETMGNATAICSDKTGTLTMNRMTVVQAYINEKHYKKVPEPEAIPPNILSYLVTGISVNCAYTSKILPPEKEGGLPRHVGNKTECALLGLLLDLKRDYQDVRNEIPEEALYKVYTFNSVRKSMSTVLKNSDGSYRIFSKGASEIILKKCFKILSANGEAKVFRPRDRDDIVKTVIEPMASEGLRTICLAFRDFPAGEPEPEWDNENDIVTGLTCIAVVGIEDPVRPEVPDAIKKCQRAGITVRMVTGDNINTARAIATKCGILHPGEDFLCLEGKDFNRRIRNEKGEIEQERIDKIWPKLRVLARSSPTDKHTLVKGIIDSTVSDQRQVVAVTGDGTNDGPALKKADVGFAMGIAGTDVAKEASDIILTDDNFTSIVKAVMWGRNVYDSISKFLQFQLTVNVVAVIVAFTGACITQDSPLKAVQMLWVNLIMDTLASLALATEPPTESLLLRKPYGRNKPLISRTMMKNILGHAFYQLVVVFTLLFAGEKFFDIDSGRNAPLHAPPSEHYTIVFNTFVLMQLFNEINARKIHGERNVFEGIFNNAIFCTIVLGTFVVQIIIVQFGGKPFSCSELSIEQWLWSIFLGMGTLLWGQLISTIPTSRLKFLKEAGHGTQKEEIPEEELAEDVEEIDHAERELRRGQILWFRGLNRIQTQIRVVNAFRSSLYEGLEKPESRSSIHNFMTHPEFRIEDSEPHIPLIDDTDAEDDAPTKRNSSPPPSPNKNNNAVDSGIHLTIEMNKSATSSSPGSPLHSLETSL
  4. + IFNG mix: 10
  4. mL1dL2 + Dox + IFNG: 11

B6: GNAI2 (protein)
chain: GCTVSAEDKAAAERSKMIDKNLREDGEKAAREVKLLLLGAGESGKSTIVKQMKIIHEDGYSEEECRQYRAVVYSNTIQSIMAIVKAMGNLQIDFADPSRADDARQLFALSCTAEEQGVLPDDLSGVIRRLWADHGVQACFGRSREYQLNDSAAYYLNDLERIAQSDYIPTQQDVLRTRVKTTGIVETHFTFKDLHFKMFDVGGQRSERKKWIHCFEGVTAIIFCVALSAYDLVLAEDEEMNRMHESMKLFDSICNNKWFTDTSIILFLNKKDLFEEKITHSPLTICFPEYTGANKYDEAASYIQSKFEDLNKRKDTKEIYTHFTCATDTKNVQFVFDAVTDVIIKNNLKDCGLF
  4. + IFNG mix: 7
  4. mL1dL2 + Dox + IFNG: 10

B7: AP2M1 (protein)
chain: MIGGLFIYNHKGEVLISRVYRDDIGSRQAADSAVFSSSGPFPGEWLEANRRNAVDAFRVNVIHARQQVRSPVTNIARTSFFHVKRSNIWLAAVTKQNVNAAMVFEFLYKMCDVMAAYFGKISEENIKNNFVLIYELLDEILDFGYPQNSETGALKTFITQQGIKSQHQTKEEQSQITSQVTGQIGWRREGIKYRRNELFLDVLESVNLLMSPQGQVLSAHVSGRVVMKSYLSGMPECKFGMNDKIVIEKQGKGTADETSKSGKQSIAIDDCTFHQCVRLSKFDSERSISFIPPDGEFELMRYRTTKDIILPFRVIPLVREVGRTKLEVKVVIKSNFKPSLLAQKIEVRIPTPLNTSGVQVICMKGKAKYKASENAIVWKIKRMAGMKESQISAEIELLPTNDKKKWARPPISMNFEVPFAPSGLKVRYLKVFEPKLNYSDHDVIKWVRYIGRSGIYETRC
  4. mL1dL2 + Dox + IFNG: 1
